These results are taken from patent US20240131147A1.

The target in this experiment is HIV-1 Clade B Env RHPA on pseudotyped virus (HIV-1). The experiment can be described thus: competition ELISA on coated RHPA pseudovirus; competitors: sera of MLA092- and MLA025-immunized mice diluted 1:400. (In an ELISA, binding on a coated surface is turned into a signal by an enzyme label.)

With “10E8 broadly neutralizing human anti-HIV-1 Env monoclonal antibody”, the concentration that completely inhibited the binding of sera amounted to 2 µg/mL.
